Square brackets hold non-standard residues; d marks the D form. Ends that are not written are not given here. NMeY = CN[C@@H](Cc1ccc(O)cc1)C(=O)O; NMeL = CN[C@@H](CC(C)C)C(=O)O
B1: SKQARPISPDrRAAGKLTCLASYCWLFWTGIA (peptide)
peptide: SKQARPISPD[dR]RAAGKLTCLASYCWLFWTGIA
modifications: not fully specified; printed as SKQARPISPDrRAAGKLTCLASYCWLFWTGIA; cysteine pairing not given here
B2: SKQGRPISSDrRASGKLTCLASYCWLFWTGIA (peptide)
peptide: SKQGRPISSD[dR]RASGKLTCLASYCWLFWTGIA
modifications: not fully specified; printed as SKQGRPISSDrRASGKLTCLASYCWLFWTGIA; cysteine pairing not given here
B3: SKAGRPISPDrRAAGKLTCLASYCWLFWTGIA (peptide)
peptide: SKAGRPISPD[dR]RAAGKLTCLASYCWLFWTGIA
modifications: not fully specified; printed as SKAGRPISPDrRAAGKLTCLASYCWLFWTGIA; cysteine pairing not given here
B4: AKQGRPISPDrRAAGKLTCLASYCWLFWTGIA (peptide)
peptide: AKQGRPISPD[dR]RAAGKLTCLASYCWLFWTGIA
modifications: not fully specified; printed as AKQGRPISPDrRAAGKLTCLASYCWLFWTGIA; cysteine pairing not given here
B5: SKQGRPISPDrRAAGKLTCLaSYCWLFWTGIA (peptide)
peptide: SKQGRPISPD[dR]RAAGKLTCL[dA]SYCWLFWTGIA
modifications: not fully specified; printed as SKQGRPISPDrRAAGKLTCLaSYCWLFWTGIA; cysteine pairing not given here
B6: SKQGRPISSDrRAAGKLTCLASYCWLFWTGIA (peptide)
peptide: SKQGRPISSD[dR]RAAGKLTCLASYCWLFWTGIA
modifications: not fully specified; printed as SKQGRPISSDrRAAGKLTCLASYCWLFWTGIA; cysteine pairing not given here
B7: SKQGRPISADrRAAGKLTCLASYCWLFWTGIA (peptide)
peptide: SKQGRPISAD[dR]RAAGKLTCLASYCWLFWTGIA
modifications: not fully specified; printed as SKQGRPISADrRAAGKLTCLASYCWLFWTGIA; cysteine pairing not given here
B8: SKQGRPISSDrRAAGKSTCLASYCWLFWTGIA (peptide)
peptide: SKQGRPISSD[dR]RAAGKSTCLASYCWLFWTGIA
modifications: not fully specified; printed as SKQGRPISSDrRAAGKSTCLASYCWLFWTGIA; cysteine pairing not given here
B9: SKQGRPISSDrRASGKSTCLASYCWLFWTGIA (peptide)
peptide: SKQGRPISSD[dR]RASGKSTCLASYCWLFWTGIA
modifications: not fully specified; printed as SKQGRPISSDrRASGKSTCLASYCWLFWTGIA; cysteine pairing not given here
B10: SKQGRAISPDrRAAGKLTCLASYCWLFWTGIA (peptide)
peptide: SKQGRAISPD[dR]RAAGKLTCLASYCWLFWTGIA
modifications: not fully specified; printed as SKQGRAISPDrRAAGKLTCLASYCWLFWTGIA; cysteine pairing not given here
B11: SKQGRPISPDrRAAGKLTCLASYCWLFWTG (peptide)
peptide: SKQGRPISPD[dR]RAAGKLTCLASYCWLFWTG
modifications: not fully specified; printed as SKQGRPISPDrRAAGKLTCLASYCWLFWTG; cysteine pairing not given here
B12: SKQGAPISPDrRAAGKLTCLASYCWLFWTGIA (peptide)
peptide: SKQGAPISPD[dR]RAAGKLTCLASYCWLFWTGIA
modifications: not fully specified; printed as SKQGAPISPDrRAAGKLTCLASYCWLFWTGIA; cysteine pairing not given here
B13: SKQGRPISPDrRAAGKLTCLASYCWLFWT (peptide)
peptide: SKQGRPISPD[dR]RAAGKLTCLASYCWLFWT
modifications: not fully specified; printed as SKQGRPISPDrRAAGKLTCLASYCWLFWT; cysteine pairing not given here
B14: SKQGRPISPDrRAAGKLTCLASYCWLFW (peptide)
peptide: SKQGRPISPD[dR]RAAGKLTCLASYCWLFW
modifications: not fully specified; printed as SKQGRPISPDrRAAGKLTCLASYCWLFW; cysteine pairing not given here
B15: SAQGRPISPDrRAAGKLTCLASYCWLFWTGIA (peptide)
peptide: SAQGRPISPD[dR]RAAGKLTCLASYCWLFWTGIA
modifications: not fully specified; printed as SAQGRPISPDrRAAGKLTCLASYCWLFWTGIA; cysteine pairing not given here
B16: SKQGRPISPArRAAGKLTCLASYCWLFWTGIA (peptide)
peptide: SKQGRPISPA[dR]RAAGKLTCLASYCWLFWTGIA
modifications: not fully specified; printed as SKQGRPISPArRAAGKLTCLASYCWLFWTGIA; cysteine pairing not given here
B17: SKQGRPIAPDrRAAGKLTCLASYCWLFWTGIA (peptide)
peptide: SKQGRPIAPD[dR]RAAGKLTCLASYCWLFWTGIA
modifications: not fully specified; printed as SKQGRPIAPDrRAAGKLTCLASYCWLFWTGIA; cysteine pairing not given here

These binders were tested against human Factor IXa (human, UniProt P00740 47-191; P00740 227-461) (assay: cell-based or functional assay).

| EC50 [µM], FXa generation assay | EC50 [µM], FXa generation assay with hFIXa | Binder |
| --- | --- | --- |
| > 1 µM |  | B1 |
| > 1 µM |  | RRAPGKLTCLASYCWLFLTGWARVPLPPRPHP [RRAPGKLTCLASYCWLF LTGWA RVPLPPRPHP] |
| < 0.5 µM |  | B2 |
| < 0.5 µM |  | PQTRDPSSRDRRAPGKLTCLASYCWLFWTGIA [PQTRDPSSRD RRAPG KLTCLASYCWLFWTGIA] |
| > 1 µM |  | RRAPGKLTCLASYCWLFVTGTAHAPRVAPAPA [RRAPGKLTCLASYCWLF VTGTA HAPRVAPAPA] |
| < 0.5 µM |  | B3 |
| < 0.5 µM |  | PRTTANRRSSRRAPAKLTCLASYCWLFWTGIA [PRTTANRRSS RRAPA KLTCLASYCWLFWTGIA] |
| < 0.5 µM |  | B4 |
| > 10 µM |  | B5 |
| < 0.5 µM |  | B6 |
|  | > 25 µM | LYTAWIKCQFARLPGCALSGRW-NH2 (cysteine pairing not given here) [compound C] |
| < 0.5 µM |  | RRAPGKLTCLASYCWLFWSGIAPQPPNMRPSV [RRAPGKLTCLASYCWLF WSGIA PQPPNMRPSV] |
| < 0.5 µM |  | B7 |
| > 1 µM |  | PARGKERELMRRAPGKLTCLASYCWLFWTGIA [PARGKERELM RRAPG KLTCLASYCWLFWTGIA] |
| > 1 µM |  | RRAPGKLTCLASYCWLFATGVTFPQIWAIPSP [RRAPGKLTCLASYCWLF ATGVT FPQIWAIPSP] |
| < 0.5 µM |  | B8 |
| < 0.5 µM |  | NGALGFRSVVPRAAGKLTCLASYCWLFWTGIA [NGALGFRSVV PRAAG KLTCLASYCWLFWTGIA] |
| > 1 µM |  | RRAPGKLTCLASYCWLFWTGIARWPSHRSGPS (not fully specified (C-terminus); cysteine pairing not given here) [RRAPGKLTCLASYCWLF WTGIA RWPSHRSGPS] |
| > 1 µM |  | RRAPGKLTCLASYCWLFWAVIAPPKVKGTRQS [RRAPGKLTCLASYCWLF WAVIA PPKVKGTRQS] |
| < 0.5 µM |  | TALSRGLVTMRTAPDKLTCLASYCWLFWTGIA [TALSRGLVTM RTAPD KLTCLASYCWLFWTGIA] |
| < 0.5 µM |  | RRAPGKLTCLASYCWLFWTTYASYATKPADTT [RRAPGKLTCLASYCWLF WTTYA SYATKPADTT] |

| EC50 [µM], FXa generation assay | EC50 [µM], FXa generation assay with hFIXa | Binder |
| --- | --- | --- |
| < 0.5 µM |  | B9 |
| > 1 µM |  | B10 |
| < 0.5 µM |  | PNLLRVRTSEVRNPGKLTCLASYCWLFWTGIA [PNLLRVRTSE VRNPG KLTCLASYCWLFWTGIA] |
| < 0.5 µM |  | B11 |
| < 0.5 µM |  | B12 |
| < 0.5 µM |  | B13 |
| < 0.5 µM |  | B14 |
| < 0.5 µM |  | RRAPGKLTCLASYCWLFWTGLLDYPTPQSHEP [RRAPGKLTCLASYCWLF WTGLL DYPTPQSHEP] |
| < 0.5 µM |  | RRAPGKLTCLASYCWLFWTTWTTAPTTPPLTT [RRAPGKLTCLASYCWLF WTTWT TAPTTPPLTT] |
| < 0.5 µM |  | GRAMAAEPWPRQAPGKLTCLASYCWLFWTGIA [GRAMAAEPWP RQAPG KLTCLASYCWLFWTGIA] |
| < 0.5 µM |  | B15 |
| > 1 µM |  | RPRSSAHDRPRRAAGKLTCLASYCWLFWTGIA [RPRSSAHDRP RRAAG KLTCLASYCWLFWTGIA] |
| < 0.5 µM |  | B16 |
| < 0.5 µM |  | RRAPGKLTCLASYCWLFWTAVGGQPYMLLAWR [RRAPGKLTCLASYCWLF WTAVG GQPYMLLAWR] |
| > 1 µM |  | AQWVGRGQWAIRAPGKLTCLASYCWLFWTGIA [AQWVGRGQWA IRAPG KLTCLASYCWLFWTGIA] |
| < 0.5 µM |  | B17 |
| > 10 µM |  | SKQGRPISPD[dR]RAAGKLTCLAS[NMeY]CWLFWTGIA (not fully specified; cysteine pairing not given here) [SKQGRPISPDrRAAGKLTCLAS-NMeTyr-CWLFWTGIA] |
| > 10 µM |  | SKQGRPISPD[dR]RAAGKLTCLASYCW[NMeL]FWTGIA (not fully specified; cysteine pairing not given here) [SKQGRPISPDrRAAGKLTCLASYCW-NMeLeu-FWTGIA] |
| < 0.5 µM |  | SLISMTNPSGRRVPGKLTCLASYCWLFWTGIA [SLISMTNPSG RRVPG KLTCLASYCWLFWTGIA] |
| > 1 µM |  | RRAPGKLTCLASYCWLFWAGIAPHRPLKERVR [RRAPGKLTCLASYCWLF WAGIA PHRPLKERVR] |
| > 1 µM |  | RRAPGKLTCLASYCWLFYTGIAHGHPMEHRKS [RRAPGKLTCLASYCWLF YTGIA HGHPMEHRKS] |

From patent US20140303084A1 (Biogen, published 2014)
